Measurements from article PMC12033236.

T1: GST-GS2 (OsGRF4) (Oryza sativa, UniProt Q6ZIK5 1-394)
T1 sequence: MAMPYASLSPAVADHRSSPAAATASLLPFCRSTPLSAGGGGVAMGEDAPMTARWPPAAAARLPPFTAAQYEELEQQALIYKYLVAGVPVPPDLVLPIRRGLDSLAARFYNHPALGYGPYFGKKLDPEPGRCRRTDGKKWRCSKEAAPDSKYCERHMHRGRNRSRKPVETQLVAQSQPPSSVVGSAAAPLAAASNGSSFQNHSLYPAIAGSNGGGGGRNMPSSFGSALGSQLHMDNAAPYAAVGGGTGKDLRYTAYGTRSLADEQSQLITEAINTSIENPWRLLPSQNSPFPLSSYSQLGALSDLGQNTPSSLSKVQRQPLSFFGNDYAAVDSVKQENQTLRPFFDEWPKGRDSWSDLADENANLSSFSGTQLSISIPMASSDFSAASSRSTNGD


What was measured:
[1] = target: T1, GST-GS2 (OsGRF4); experiment: competition
[2] = target: T1, GST-GS2 (OsGRF4); experiment: EMSA

| Binder | binding result [1] | binding result [2] |
| --- | --- | --- |
| SUG1 unlabeled probe A (competitor) (dsDNA) DNA 1: CGCACAGTCCACCCAAAGCCGTTGTTA DNA 2: TAACAACGGCTTTGGGTGGACTGTGCG | binds |  |
| SUG1 probe A-m (dsDNA) DNA 1: CGCTACGTTCACCCAAAGCCGTTGTTA DNA 2: TAACAACGGCTTTGGGTGAACGTAGCG |  | no binding |
| SUG1 probe A (dsDNA) DNA 1: CGCACAGTCCACCCAAAGCCGTTGTTA DNA 2: TAACAACGGCTTTGGGTGGACTGTGCG |  | binds |
